The values below come from US9777056B2, “Immunotherapy for clearing pathological tau conformers” (New York University, priority 2006, dated 2017).

The series in a line: Thioflavin T (ThT) in vitro fibrillogenesis assay. It is filed as physicochemical. Conditions: 0.1 M Tris pH 7.4, incubated for different times.

Description: ThT binds specifically to β-sheet structure and this binding produces a shift in its emission spectrum and a fluorescent enhancement proportional to the amount of amyloid formed. Following the incubation period, 50 mM glycine, pH 9.2, and 2 μM ThT was added to a final volume of 200 μl containing 3 μg of the immunogen or the P301L tau peptide (with or without equimolar concentration of antibodies purified from the immunized mice). Fluorescence was measured at excitation 435 nm and emission 485 nm on a SpectraMax M2 multi-detection plate reader (Molecular Devices, Sunnyvale, Calif.).

Regarding “Aβ1-42: amyloid-β control peptide used for comparison in ThT and MTT assays”, the “fibril formation (fibrillogenicity), Thioflavin T fluorescence” value is “very fibrillogenic”.
